What all share (format): cell-based
The target in series [1] is T1, ERα-EF (residues 297-595, the E and F domains of Estrogen Receptor α) (Homo sapiens, UniProt P03372, G400V).
T1 construct: expressed in transfected cells; host or cells: Saccharomyces cerevisiae RFY206 (mated with EGY48 for the survival screens)
T1 sequence (P03372 with tags, fused parts or gaps G400V): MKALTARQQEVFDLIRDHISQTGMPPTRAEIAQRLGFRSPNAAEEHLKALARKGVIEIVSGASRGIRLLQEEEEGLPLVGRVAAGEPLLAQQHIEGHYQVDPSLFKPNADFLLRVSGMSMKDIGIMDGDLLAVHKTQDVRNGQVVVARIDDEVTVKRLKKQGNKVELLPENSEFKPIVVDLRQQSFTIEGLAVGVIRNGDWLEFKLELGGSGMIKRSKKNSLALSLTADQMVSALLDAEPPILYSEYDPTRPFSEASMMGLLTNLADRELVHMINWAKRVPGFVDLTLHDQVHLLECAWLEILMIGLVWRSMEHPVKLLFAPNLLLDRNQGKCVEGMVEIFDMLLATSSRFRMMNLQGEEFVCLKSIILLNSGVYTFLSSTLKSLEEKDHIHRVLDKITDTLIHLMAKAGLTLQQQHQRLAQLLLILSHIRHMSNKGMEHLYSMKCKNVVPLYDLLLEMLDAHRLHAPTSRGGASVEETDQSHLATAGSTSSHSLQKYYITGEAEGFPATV
As to the kind of experiment: Quantitative β-galactosidase yeast two-hybrid assay, ERα-EF bait. Particulars: for binding to different ERα-EF/agonist complexes: agonists E2, estriol, diethylstilbestrol, genistein, FIGS. 15A-D. As to the method: (§1) Quantitative assays were performed as follows. The yeast strain RFY206 was (1) first transformed with pEGERα297-595 (or pEGERα297-554) and pSH18-34 and (2) subsequently with a derivative of the pYT45 plasmid encoding a particular monobody. Yeast cells were grown overnight at 30° C. in YC Glc-his-ura-trp media. The culture was then spun down, the media were discarded, and the cells were resuspended in YC Gal Raf-his-ura-trp media containing a ligand at a final cell density of 0.2 OD660 nm in a total volume of 175 μl in the wells of a deep 96-well plate. Ligands used were E2, ICI182,780, OHT, raloxifene, progesterone, estriol, diethylstilbestrol, and genistein. The ligand concentration was 1 μM except for genistein (10 μM). After incubating for six hours at 30° C. with shaking, 175 μl of β--galactosidase assay buffer (60 mM Na2HPO4, 40 mM NaH2PO4, 10 mM KCl, 1 mM MgSO4, 0.27% β-mercaptoethanol, 0.004% SDS, 4 mg/ml 2-nitrophenyl-β-D-[…], 50% Y-PER (Pierce)) was added to the culture, incubated at 30° C., then the reaction was stopped by adding 150 μl of 1M Na2CO3. After centrifugation, OD420 was measured and the β-galactosidase activity was calculated.
The binding specificity of the monobodies toward different ERα-EF/ligand complexes was examined using quantitative β-galactosidase assays. It has been shown that the β-galactosidase activity correlates well with the interaction affinity between the bait and prey of the yeast two-hybrid system (Estojak et al., 1995), allowing an in vivo discrimination of interaction affinity. To minimize the effect of different ligands on the expression level and degradation of the LexA-ER fusion protein, β-galactosidase activity was determined after a short incubation period (6 hours) following the addition of a ligand and the initiation of monobody production. It was confirmed that yeast samples prepared in the presence and absence of ligands contained similar levels of ERα-EF protein (FIG. 14H).

Series [2] addresses T2, ERα-E (residues 297-554, the E domain of Estrogen Receptor α) (Homo sapiens, UniProt P03372, G400V).
T2 construct: ERα-E (residues 297-554, the E domain of Estrogen Receptor α); expressed in transfected cells; host or cells: Saccharomyces cerevisiae RFY206
T2 sequence (P03372 297-554 G400V): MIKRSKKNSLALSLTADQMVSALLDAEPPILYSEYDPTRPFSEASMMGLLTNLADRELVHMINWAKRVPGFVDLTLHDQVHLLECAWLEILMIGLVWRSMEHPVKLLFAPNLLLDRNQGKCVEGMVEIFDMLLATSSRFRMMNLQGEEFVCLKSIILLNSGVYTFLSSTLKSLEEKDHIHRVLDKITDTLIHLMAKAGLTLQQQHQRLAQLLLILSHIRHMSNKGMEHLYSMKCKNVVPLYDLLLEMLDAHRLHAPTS
As to the kind of experiment: Quantitative β-galactosidase yeast two-hybrid assay, ERα-E bait (F domain deleted) compared with ERα-EF. Particulars: for effect of deletion of the F domain on interaction with the ERα fragments: in the presence of E2, ERα-E vs ERα-EF, FIGS. 16A-C. On the procedure:
as §1
The affects of the F domain (residues 551-595) on interactions of monobodies with the LBD (the E domain) of ERα was tested. The β-galactosidase activity of cells containing a LexA-ERα E domain fusion protein and a monobody-activation domain fusion protein was compared to the β-galactosidase activity of cells containing LexA-ERα-EF and the same monobody-activation domain fusion protein (FIGS. 16A-E).

For series [3], the target named is T1, ERα-EF (residues 297-595, the E and F domains of Estrogen Receptor α). As to the kind of experiment: Yeast two-hybrid survival assay (LEU+ growth selection) of monobody clones. The settings on record: ligand ICI182,780, pYT45B3F7 library clones. From the text:
Briefly, utilizing such a system, plasmids are constructed that encode two fusion proteins, the interaction of which is shown schematically in FIGS. 4A-B. The first fusion protein (also known as “bait”) contains the DNA-binding domain (e.g., LexA) fused to a known protein, in this case a nuclear receptor or fragment thereof which includes a functional ligand binding domain (NR-LBD). Any of the above-identified nuclear receptors (or fragments thereof which include a functional ligand binding domain) can be used as the bait protein or polypeptide. The second fusion protein (also known as “prey”) includes an activation domain (e.g., B42) fused to an unknown protein, in this case a polypeptide monobody, that is encoded by a cDNA which has been recombined into a plasmid as part of a combinatorial cDNA library. Both plasmids include a promoter which is operable in yeast cells and which has been ligated upstream of the fusion protein coding regions. […] In contrast, where interaction between the monobody of the prey and the nuclear receptor ligand binding domain of the bait occurs (FIG. 4B), a functional transcription factor is reconstituted, resulting in expression of the reporter gene which can be detected by an assay for the reporter gene product. […]

B1: SRC-1: NR-box fragment (residues 570-780) of steroid receptor coactivator-1, natural coactivator of ER (protein)
chain: PSRLNIQPAKAESKDNKEIASILNEMIQSDNSSSDGKPLDSGLLHNNDRLSDGDSKYSQTSHKLVQLLTTTAEQQLRHADIDTSCKDVLSCTGTSNSASANSSGGSCPSSHSSLTERHKILHRLLQEGSPSDITTLSVEPDKKDSASTSVSVTGQVQGNSSIKLELDASKKKESKDHQLLRYLLDKDEKDLRSTPNLSLDDVKVKVEKKEQ
modifications: left off: large carriers
In the case of B1, in series [1], the “binding to different ERα-EF/agonist complexes” value is “bind equally well”. In addition, the “effect of deletion of the F domain on interaction with the ERα fragments” value in series [2] was “little effect”.

B2: Clone F2-2#11: pYT45B3F7 library monobody, E2 screen; FG loop RVMDMLL (SEQ ID No: 44) (protein)
chain: MQVSDVPRDLEVVAATPTSLLISWDAPAVTVRYYRITYGETGGNSPVQEFTVPGSKSTATISGLKPGVDYTITVYAVTGRVMDMLLSKPISINYRT
modifications: left off: large carriers
For B2, the “sensitivity to the differences among agonist complexes” value in series [1] (ERα-EF/agonist complexes) was “most sensitive”. In series [1] (ERα-EF/agonist complexes, FIGS. 14-16), the “β-galactosidase activity among those tested” value is “lowest”. For the same molecule, in series [1], the “binding to different ERα-EF/agonist complexes” value is reported as “different reactivity”.

B3: F2-2#10 (protein)
chain: MQVSDVPRDLEVVAATPTSLLISWDAPAVTVRYYRITYGETGGNSPVQEFTVPGSKSTATISGLKPGVDYTITVYAVTGRVRDLLMSKPISINYRT
modifications: left off: large carriers
Consider B3, for which the “Binding Specificity ICI” value in series [3] is “weak+”.

B4: Clone 23,31,E31,3,4,5: pYT45B3F7 library monobody, E2 screen; FG loop LRLMLAG (SEQ ID No: 36), wild-type BC loop (protein)
chain: MQVSDVPRDLEVVAATPTSLLISWDAPAVTVRYYRITYGETGGNSPVQEFTVPGSKSTATISGLKPGVDYTITVYAVTGLRLMLAGSKPISINYRT
modifications: left off: large carriers
As to B4, the “binding to different ERα-EF/agonist complexes” value in series [1] is “bind equally well”. The “effect of deletion of the F domain on interaction with the ERα fragments” value in series [2] is “little effect”.

B5: Clone 33: pYT45B3F7 library monobody, OHT screen; FG loop TWVRPNQ (SEQ ID No: 49) (protein)
chain: MQVSDVPRDLEVVAATPTSLLISWDAPAVTVRYYRITYGETGGNSPVQEFTVPGSKSTATISGLKPGVDYTITVYAVTGTWVRPNQSKPISINYRT
modifications: left off: large carriers
With B5, the “effect of deletion of the F domain on interaction with ERα” value in series [2] (in the absence of a ligand) is “did not increase”. For the same molecule, in series [2] (in the presence of OHT, FIG. 16D), the “interactions with ERα-E and ERα-EF compared” value is “similar”. In addition, in series [2] (raloxifene, FIG. 16D), the “interaction with ERα-E/raloxifene complex relative to ERα-EF/raloxifene complex” value is “significantly greater”.

For the origin of these results see patent US7598352B2, “Method of identifying polypeptide monobodies which bind to target proteins and use thereof” (University of Rochester, priority 2000, dated 2009).
